From IntAct's records for PubMed 20133640 come the findings set out here.

The target in this assay is ssph2_salty sspH2 (UniProt P0CE12).
Chain of ssph2_salty sspH2 (P0CE12 whole entry): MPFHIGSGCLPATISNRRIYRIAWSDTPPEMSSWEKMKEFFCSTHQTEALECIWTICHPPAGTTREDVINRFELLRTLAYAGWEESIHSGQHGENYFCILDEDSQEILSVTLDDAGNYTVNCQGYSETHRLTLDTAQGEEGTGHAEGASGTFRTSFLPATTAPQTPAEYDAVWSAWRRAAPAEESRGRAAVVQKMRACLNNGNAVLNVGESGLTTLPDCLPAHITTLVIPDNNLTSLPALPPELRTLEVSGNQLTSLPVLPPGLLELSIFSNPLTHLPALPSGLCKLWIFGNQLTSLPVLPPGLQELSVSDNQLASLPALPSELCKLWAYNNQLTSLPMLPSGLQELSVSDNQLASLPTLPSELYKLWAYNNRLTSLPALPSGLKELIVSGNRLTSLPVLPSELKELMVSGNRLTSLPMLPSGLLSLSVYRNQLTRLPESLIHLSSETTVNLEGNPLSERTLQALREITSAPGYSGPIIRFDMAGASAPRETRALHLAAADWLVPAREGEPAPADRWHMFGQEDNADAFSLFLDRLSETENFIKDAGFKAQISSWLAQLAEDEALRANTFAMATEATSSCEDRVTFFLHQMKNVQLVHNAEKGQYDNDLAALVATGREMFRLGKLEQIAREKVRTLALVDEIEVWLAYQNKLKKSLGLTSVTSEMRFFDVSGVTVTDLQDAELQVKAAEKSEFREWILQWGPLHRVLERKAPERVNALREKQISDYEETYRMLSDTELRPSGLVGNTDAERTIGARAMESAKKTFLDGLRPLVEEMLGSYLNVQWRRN

Chain of Ubiquitin-conjugating enzyme E2 D3 (Homo sapiens), P61077 A96D (P61077 whole entry A96D): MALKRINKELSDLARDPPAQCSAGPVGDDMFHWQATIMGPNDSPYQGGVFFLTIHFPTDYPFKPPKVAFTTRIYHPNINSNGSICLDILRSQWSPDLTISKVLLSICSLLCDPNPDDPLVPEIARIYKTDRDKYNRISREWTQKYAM

With “Ubiquitin-conjugating enzyme E2 D3 (Homo sapiens), P61077 A96D”, the “effect of a mutation on the interaction” value was “decreasing interaction”.
